Laboratory results taken from publication PMC4227749.

Test system: AgrA L171A (Staphylococcus aureus SH1000)
Assay: EMSA
Settings: EMSA: 10 mM HEPES pH 7.6, 50 mM KCl, 1 mM EDTA, 2 mM DTT, 0.5% Triton X-100, 5% glycerol, 37 C; 1 uM AgrA (pre-incubated at 3 uM with 50 mM acetyl phosphate …)

## agr operon intergenic region P2-P3 probe
  binding signal (% of wild-type binding): 50
